In publication PMC11261718:

Target: West Nile virus NS5 protein, wild-type, with a C-terminal Flag tag (UniProt P06935)
Experiment: co-immunoprecipitation (NS5-Flag IP, western blot for NS3-myc)
Conditions: parent: 100

**Q.** Which results are given for “West Nile virus NS3 protein, wild-type, with a C-terminal myc tag (from UniProt P06935) R186A”?
**A.** percent of parent (IP with RNase): 69%; percent of parent (IP without RNase): 107%
